These results are taken from patent publication US20240076398A1 (VISTERRA, published 2024).

No end group written: not given here.

Test in all cases: BLI, peptide on streptavidin sensor
For experiment [1], the target named is T1, biotinylated N-terminal peptide of C5aR1 with tyrosine sulfation (human, tyrosine sulfation (the sulfated tyrosines of C5aR1 are Y11 and Y14); biotinylated).
T1 construct: also called Sulfated N-terminal
T1 peptide: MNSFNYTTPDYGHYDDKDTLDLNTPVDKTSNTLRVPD
The text has this:
(§1) The epitope mapping was undertaken, using biolayer interferometry, on a series of exemplary anti-C5aR1 antibodies generated as described in Example 1. Briefly, for each antibody, biotinylated peptides representing ECL2, the N-terminus with tyrosine sulfation, and the N-terminus without tyrosine sulfation, were immobilized in a streptavidin biosensor. Subsequently, the biosensor was exposed to […] of antibody to detect antibody binding to the immobilized peptide. The results of the epitope mapping study are shown in Table 4 (“+” indicates binding to the listed peptide; “−” indicates lack of binding to the listed peptide).

Experiment [2] deals with T2, biotinylated N-terminal peptide of C5aR1 without tyrosine sulfation (human, biotinylated).
T2 construct: also called Non-sulfated N-terminal
T2 peptide: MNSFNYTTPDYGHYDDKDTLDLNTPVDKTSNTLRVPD
Description: as §1

For experiment [3], the target named is T3, biotinylated cyclic ECL2 peptide of C5aR1 (human, also: biotinylated, position not given here, cyclic, way of cyclisation not given here).
T3 peptide: RVVREEYFPPKVLC
Description: as §1

B1: Clone_79 (antibody, V domains shown)
VH: QVQLKESGPGLVAPSQSLSITCTVSGFSLTSYAISWVRQPPGKGLEWLGVIWTGGGTKYNSALKSRLSISKDNSKSHVFLKMNSLQSDDTARYYCARDGDYVYYAMAYWGQGTTVTVSS
VL: DVVMTQTPLSLPVSLGDQASISCRSSQSLVHSNGNTYLHWYLQKPGQSPKLLIYKVSNRFSGVPDRFSGSGSGTDFKLKISRVEAEDLGVYFCSQSTHVPPTFGGGTKLEIK
notes: also called antibody 79
As to B1, the binding result in experiment [1] and in experiment [2] was “no binding (tested: 10 gg/mL (so in the source))” each time.

B2: Clone_329 (antibody, V domains shown)
VH: QVQLQQSGAELTKPGASVKLSCKASGYTFTNYWMHWVKQRPGQGLEWIGYLNPSSGYTKYNQKFKDKATLTADKSSSTAYMQLNSLTYEDSAVYYCTRSGGDNYGNPYYFDRWGQGTTVTVSS
VL: DVVMTQTPLSLTVSLGDQASISCRSSQSLVHSNGNTYLHWYLQKPGQSPKFLIYKVSNRFSGVPDRFSGSGSGTDFRLKISRVEAEDLGVYFCSQSTLVPLTFGAGTKLEIK
notes: also called Ab329; mAb329
In the case of B2, the binding result in experiment [1] and in experiment [2] was “no binding (tested: 10 gg/mL (so in the source))” in each case.

B3: Clone_583 (antibody, V domains shown)
VH: EVQLVESGGGLVKPGGSLKLSCAASGFTFNAYAMSWVRQTPEKRLEWVASISTGGNTYCPDSVKDRFTVSRDNVRNILYLQMSSLRSEDTAMYYCTRGYQRFSGFAYWGQGTLVTVS
VL: DVVMTQTPLSPPVSLGYQASISCRSSQSLVHSNGNTYLNWYLQKPGQSPKLLIYKVSNRLSGVPDRFSGSGSGTDFTLKISRVETEDLGVYFCSQSTHVPYTFGGGTKLEIK
notes: also called Ab583; mAb583
Take B3: the binding result in experiment [3] is recorded as “no binding (tested: 10 gg/mL (so in the source))”.

B4: Clone_429 (antibody, V domains shown)
VH: QVQLQQSGAELAKPGASVKLSCKASGYTFSSYWIHWVKQRPGQGLEWIGYINPRGDYTKYNQKFKDKATLTADKSSSTAFMQLSSLTYEDSAVYYCVRVTGSEGPYYFDYWGQGTTLTVSS
VL: DVVMTQTPLSLPVSLGDQASISCRSSQSLVHSNGNTYLQWYLQKPGQSPKLLIYKVSNRFSGVPDRFSGSGSGTEFTLKIRRVEAEDLGVFLCSQSTLVPLTFGAGTKLELK
For the molecule B4, the binding result in experiment [1] and in experiment [2] was “no binding (tested: 10 gg/mL (so in the source))” in each case.

B5: Clone_11_V2 (antibody, V domains shown)
VH: QVQLQQSGPELVKPGASVKISCKASGYSFSSSWMNWVKQRPGKGLEWIGRISPGDGDTRYSGKFKGKATLTADKSSSTAYMQVTSLTSEDSAIYFCVRFLITSTRYVMDYWGQGTTVTVSS
VL: DVVMTQTPLSLPVSLGDQASISCRSSQSLVHSNGNTYLHWYLQKPGQSPKLLIYKVSNRFSGVPDRFSGSGSGTDFTLKISRVEAEDLGVYFCSQSTLVPPTFGGGTKLEIK
notes: also called Ab11v2
On to B5, for which the binding result in experiment [1] and in experiment [2] was “no binding (tested: 10 gg/mL (so in the source))” each time.

B6: Clone_584 (antibody, V domains shown)
VH: DVQLQESGPDLVKPSQSLSLTCTVTGYSITSGYSWHWIRQSPGNKLEWLAYIHNSGSTNYNPSLKSRISITRDTSKNQFFLKLNSVTTEDTATYYCARSIGDYWGQGTTLAVSS
VL: DVVMTQTPLSLPVSLGDRASISCRSGQSLVHSNGNTYLHWYLQRPGRSPNLLIYKVSNRFSGVPDRFSGSGSGTDFTLKISRVEAEDLGVYFCSQSTHVPWTFGGGTKLEIK
B6: the binding result in experiment [1] and in experiment [2] was “no binding (tested: 10 gg/mL (so in the source))” each time.

B7: Clone_588 (antibody, V domains shown)
VH: DVQLQESGPGLVKPSQSLSLTCTVTGYSITSDYAWNWIRQFPGNKLEWMGYISYSGSIRYNPSLKSRISITRDTSKNQFFLQLNSVTTEDTATYYCAITTGGYFDYWGQGTTLTVSS
VL: DIQMTQSTSSLSASLGDRVTISCRASQDISNYLNWYQQTPDGTVKLLIYQISRLHSGVPSRFSGSGSGTDYSLTISNLEEEDIANYFCQQGNSLPPTFGGGTKVEIK
For the molecule B7, the binding result in experiment [1] and in experiment [2] was “no binding (tested: 10 gg/mL (so in the source))” each time.

B8: antibody 343 (antibody, V domains shown)
VH: QVQLQQSGAELVKPGASVKLSCKASGYTFTEYTIHWVNQRSGQGLEWIGWFYPGSGSIKYNEKFKDKATLTADKSSHTVYMELSRLTSEDSAVYFCARHGNYYDGSWFAYWGQGTLVTVSA
VL: DVQITQSPSYLAASPGETITINCRASKSISKYLAWYQEKPGKTNKLLIYSGSTLQSGIPSRFSGSGSGTDFTLTISSLEPEDFAMYYCQQHDEYPWTFGGGTKLEIK
Take B8: the binding result in experiment [1] and in experiment [2] was “no binding (tested: 10 gg/mL (so in the source))” in each case.

B9: Clone_511 (antibody, V domains shown)
VH: QVQLQQSGAELAKPGASVKLSCKTSGYTFTNYWMHWIKQRPGLGLEWIGYINPSGDYTKHNQKFKDKATLTADRSSSTAYMQLSSLTYEDSAVYYCARVPLSYGSGNGPYYFDYWGQGTTLTVSS
VL: DVVMTQTPLSLPVSLGDHASISCRSSQSLVHSNGNIYLHWYLQRPGQSPKLLIHKVSNRFSGVPDRFSGSGSGTDFTLKISRVEAEDVGIYFCSQSTLVPLTFGSGTKLELK
As for B9, the binding result in experiment [1] and in experiment [2] was “no binding (tested: 10 gg/mL (so in the source))” each time.

B10: Clone_518 (antibody, V domains shown)
VH: QVQLQQSGAELAKPGASVKLSCKTSGYTFTNYWMHWIKQRPGLGLEWIGYINPSGDYTKHNQKFKDKATLTADRSSSTAYMQLSSLTYEDSAVYYCARVPLSYGSGNGPYYFDYWGQGTTLTVSS
VL: DVVMTQTPLSLPVSLGDHASISCRSSQSLVHSNGNTYLHWYLQRPGQSPKLLIHKVSNRFSGVPDRFSGSGSGTDFTLKISRVEAEDVGIYFCSQSTLVPLTFGSGTKLELK
For the molecule B10, the binding result in experiment [1] and in experiment [2] was “no binding (tested: 10 gg/mL (so in the source))” in each case.

B11: Clone_66 (antibody, V domains shown)
VH: QVQLQQSDAELVKPGASVKISCKASGYTFIDHAIHWVKQRPEQGLEWIGYISPGNGEIKYNEKFKAKATLTADKSSSAAYMQLNSLTSADSAVYFCKRALFYYTGKYQPMDYWGQGTTVTDSS
VL: DIVMTQSQKFMSTTAGDRVSITCKASQNVGSAVVWYQQKPGRSPKLLIYSSSIRYTGVPDRFTGSGSGTDFTLTINSVQSEDLADYFCQQYNSFPLTFGAGTKLEIK
notes: also called Ab66; mab 66
Take B11: the binding result in experiment [3] is given as “no binding (tested: 10 gg/mL (so in the source))”.

B12: Clone_336_V2-1 (antibody, V domains shown)
VH: QVQLKQSGPGLVQSSQSLSITCTVSGFSLISYGVHWVRQSPGKGLEWLGVIWSGGSTDYNAAFKSRLSITKDNSKSQVFFKMNSLQADDTAIYYCAKNSQLGNAMDYWGQGTTVTVSS
VL: DIVMSQSPSSLAVSAGEKVTMSCKSSQSLLSSRTRKNYLAWYQQKPGQSPKLLIYWASTRESGVPDRFTGSGSGTDFTLTISSVQAEDLALYFCNQSYDLLTFGAGTKLEIK
Take B12: the binding result in experiment [1] and in experiment [2] was “no binding (tested: 10 gg/mL (so in the source))” throughout.

B13: antibody 317 (antibody, V domains shown)
VH: QVQLQQPGAELVMPGASVKLSCKASGYTFTSYWLHWVRQRPGQGLEWIGEIDPSDGYSNHNQKFKGKATLTVDKSSSTAYMQLSSLTSEDSAVYYCATEGFWGQGTTVTVSS
VL: DIVMTQSPSSLSVSAGEKVTMSCKSSQSLLKSGNQKNYLAWHQQKPGQPPKLLIYGASTRESGVPDRFTGSGSGTDFTLTISSVQAEDLAVYYCQNDHSHPYTFGGGTKLEIK
As for B13, the binding result in experiment [1] and in experiment [2] was “no binding (tested: 10 gg/mL (so in the source))” in each case.

B14: Clone_453 (antibody, V domains shown)
VH: QVQLKQSGPGQVAPSQSLSITCTVSGFSLINSAVHWVRQSPGKGLEWLGVIWSDGSTDYNTAFISRLSISRDNSKSQVFFKMRSLQVDDTAVYYCARNGRLGNAMDYWGQGTSVTVSS
VL: DIVMTQSPSSLAVSVGEKVTMSCKSSQSLFSSRTRKNYLAWYQQKPGQSPKLLIYWASTRESGVPYRFTGSGSGTDFTLTISSVQTEDLAVYYCKQSYNLLTFGAGTKLEL
With B14, the binding result in experiment [1] and in experiment [2] was “no binding (tested: 10 gg/mL (so in the source))” each time.

B15: Clone_402 (antibody, V domains shown)
VH: QIQLVQSGPELKKPGETVKISCKASGYTFTTFGMSWVKQAPGKGLKWMGWINTNSGMPTYTDDFRGRFAFSLETSASTAYLQISSLKNEDTATYFCARKSLFYWGQGTTLTVSS
VL: DVVMTQSPLTLSVTIGQPASISCRSSRSLLDSDGKTKLHWLLQRPGQSPKSLIYLVSKLDSGVPNRFTGGGSGTDFTLKINRVEAEDLGVYYCWQGTHFPWTFGVGTKLEIK
Turning to B15, the binding result in experiment [3] is on record as “no binding (tested: 10 gg/mL (so in the source))”.

B16: Clone_184 (antibody, V domains shown)
VH: QVQLQQSGAELVKPGASVKISCKASGYAFSRYWMNWVKQRPGKGLEWIGQIYPGDGDTKYNGKFKGKATLTADKSSSTAYMQLNSLTSEDSAVYFCTRSLGVWGTGTTVTVSS
VL: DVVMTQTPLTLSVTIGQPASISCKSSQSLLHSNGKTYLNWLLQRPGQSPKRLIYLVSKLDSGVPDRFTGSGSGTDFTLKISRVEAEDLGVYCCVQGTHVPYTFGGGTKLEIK
In the case of B16, the binding result in experiment [3] is “no binding (tested: 10 gg/mL (so in the source))”.
